Assay: label from the status in PepcDB records

MALPRSEDGLVLMWSGGKDAMLALDVLHSQSPRRVGALLTTVTADEERVTMHGTPLSLVERQADALNVPLHVMRVPPQPPNEVYEARLEAALTPLLENGFSTVVAGDLFLDDVRAYREALIESVGATALFPLWGRDTTWLAQRFSTRGYRAVVTAVDTTQLDSSFVGRTYDDSFLEDLPDAVDPCGEKGAFHTFVSDGPPFAASVPVAETGRDTTGRIHTVRLRATGEEA
protein production: failed

MALRLAVPAMTAQLPPGVTHVDCSTLDMPNAYVVVDDNETTLVDAGWPGDEQTVRDGLHTAGVEPGDIDRVLVTHYDADHVGTLARLTPALDAPVYVHERDAPYVAGDRLPPWTARNGIGALHRLYYRRLDLPDLPIRAVVDGDDIGGFHAYHTPGHTPGHVAYVHEDLSVAFLGDLAYGLGDRLKPTGWLTSSDAAAVESSVRSLCRRAPAFEYACPGHGPPLPDGDDRLAEALP
protein production: failed

MALSSAPILITGASQRVGLHCALRLLEHGHQVIISYRTEHASVAQLRQAGAHTLHGDFSSEASIMAFIEQLKSHTSSLRAIVHNASEWLAETPGDEAENFTRMFSVHMLAPYLINLHCEALLHASDVADIVHISDDVTRKGSSKHIAYCATKAGLESLTLSFAARFAPLVKVNGIAPALLMFQPKDDAAYRANALAKSAMGIEPGAEVIYQSLRYLLDSTYVTGTTLTVNGGRHVK
protein production: failed

MALSTEKKVGFFFMAGLVVLGVMLELGERWNPFEKNLPYVTYLSSTTGLKVGDPVRLAGVEVGKITRIDIEDGRVKVGFEVKPGTRIKTDSVATIRLTNLLGGQFLGISFGTQTADILAPGSEVKSREIANIDIIVDNVSDLTKDARTFLNDLNTNQNEVLGKISTMLDENRGNLKGAVQNLNSITAKMDRGEGSLAMLLNDKALYQNTNELATSLKTVTGKIERGEGSLGKLVNEDALYVEAKGALAELNAGAKDIKEIAAKINKGEGSVGKLVHDEALYNELRDASKNISDVARKINEGQGTLGKLVNDDKLYRDTAAAMKKLDKAADGLSDSGPISVLGSVVGTLF
protein production: failed

MALTFYQYPKCGTCQKAKKWLDQHGIEVNSVHIVEQPPSKEELKQLYEQSGLELKKFFNTSGKKYRELGLKDKVKEASEDELLETLASDGMLIKRPILTDGDKVTVGFKEAEYEETWKK
protein production: failed

MALVLVKYGTDHPVEKLKIRSAKAEDKIVLIQNGVFWALEELETPAKVYAIKDDFLARGYSEEDSKVPLITYSEFIDLLEGEEKFIG
protein production: not failed

MALYWNLRLSVKNWRSIQNNEKLIFQVLWPLKLLVALKFISTLEERLIIPESDKPHTPPEGRLPDATKGFDLLRDVFAKRMGLSDKDIVALSGSHTPISPSQS
protein production: failed

MAMADVTIRGAGIFGLSIAWACVLRGARVQVVDPFGPGAGSSGGLVGALAPHVPENWNAKKAFQFDSLIMAEGFWAGVEAAGGVSPGYGRTGRIQPLADERAVDLADERAENARTLWQGQAEWRVCPVDEMGSWCPPSPTGLVVHDTLSARMHPRRACAALVGALAVRGVEVLAEAPDRGQVIHATGIAGLEELNRARGRLVGTGVKGQAALLRFDAGRQAPQLFADTVHIVPHADGTLAIGSTSERDYDDPTSTDAALDTVLDRAMQAVPLLHGAEVIERWAGVRPRSRSRAPMLGAHPLYPDQFIANGGFKIGFGMAPKVAHVMAELVLEGQDNIPQDFRPEASL
protein production: failed

MAMGRTTQFTLDEVAKHADKDSCWLVIDGKVYAVEKFLNEHPGGEDVLLETAGRDATREFEDVGHSKSAREQLKEFYIGDVREPTAEELAAKRAVQASAAAERRDGDGVRANGLGKERLFAGGAFGAEPLSGGSSTWTLLKRLFVPVCIAVLVYLVREYSKQVQTGG
protein production: not failed

MAMLQTNLGFITSPTFLCPKLKVKLNSYLWFSYRSQGNFSYSLYTFKPMNLWFVQKLDFSKRVNRSYKRDALLLSIKCSSSTGFDNSNAVNSNVVVKEKSVSVILLAGGQGKRMKLCFWLRDVPKISLSLFLFCGVLEYEESIDVDLRFAIPGKERQDSVYSGLQEIDVNSELVCIHDSARPLVNTEDVEKVLKDGSAVGAAVLGVPAKATIKEVIKPELLKKGFELVKSEGLEVTDDVSIVEYLKHPVYVSQGSYTNIKVTTPDDLLLAERILSEDS
protein production: failed

Reference: a protein production outcome set (Wang et al. 2014)
